According to paper doi:10.1101/2021.08.02.453806:

Molecular target: MBP-PPM-1.D-10xHIS (C. elegans)
Test: pull-down

fold CHK-2 pulled down, normalized, relative to truncated PPM-1.D: 20 fold
B1: GST-CHK-2-3xFLAG (enzyme)
chain: MVRGTKRRRSSAEKPIVVVPVTRDDTMPVDEDLVVGESQCAASKPFAKLVGVRRGISSIDLADDHFVCGRGSDDAPTNFNFSQVAKDVGLYRFISKIQFSIDRDTETRRIYLHDHSRNGTLVNQEMIGKGLSRELMNGDLISIGIPALIIFVYESADADHHPEELTKKYHVTSHSLGKGGFGKVLLGYKKSDRSVVAIKQLNTQFSTRCSRAIAKTRDIRNEVEVMKKLSHPNIVAIYDWITVAKYSYMVIEYVGGGEFFSKVVDSKYNRMGLGESLGKYFAFQLIDAILYLHSVGICHRDIKPENILCSDKAERCILKLTDFGMAKNSVNRMKTRCGTPSYNAPEIVANEGVEYTPKVDIWSLGCVLFITFSGYPPFSEEYTDMTMDEQVLTGRLIFHAQWRRITVETQNMIKWMLTVEPSNRPSAVELMSTQWMKCADCRTAKQDILKSIKPISAAAPAALQTTQAGPVKKAKM
